According to article PMC5380708, “Optimized synthesis of novel prenyl ferulate performed by feruloyl esterases from Myceliophthora thermophila in microemulsions” (Applied Microbiology and Biotechnology, 2017):

B1: MtFae1a (Thermothelomyces thermophilus ATCC 42464) (protein)
chain: ASLQEVTEFGDNPTNIQMYIYVPDQLDTNPPVIVALHPCGGSAQQWFSGTQLPSYADDNGFILIYPSTPHMSNCWDIQNPDTLTHGQGGDALGIVSMVNYTLDKHSGDSSRVYAMGFSSGGMMTNQLAGSYPDVFEAGAVYSGVAFGCAAGAESATPFSPNQTCAQGLQKTAQEWGDFVRNAYAGYTGRRPRMQIFHGLEDTLVRPQCAEEALKQWSNVLGVELTQEVSGVPSPGWTQKIYGDGTQLQGFFGQGIGHQSTVNEQQLLQWFGLI
notes: secreted from Pichia pastoris X33, glycosylated

Legend:
[1] = tested on: T1, C=COC(=O)/C=C/c1ccc(O)c(OC)c1; experiment: transesterification rate by HPLC, nonlinear Michaelis-Menten fit; assay type: biochemical, Thermothelomyces thermophilus; settings: acyl donor, 200 mM prenol, n-hexane:t-butanol:100 mM MOPS-NaOH pH 6.0 19.8:74.7:5.5 v/v/v microemulsion, 40 °C, 8 h, error = SE
T1 construct: secreted, over-expressed in low-background M. thermophila C1 host
Excerpt: transesterification rate by HPLC, nonlinear Michaelis-Menten fit on FaeA2

[2] = substrate: C=COC(=O)/C=C/c1ccc(O)c(OC)c1; experiment: as above; assay type: biochemical, Thermothelomyces thermophilus; settings: acyl donor, 200 mM prenol, n-hexane:t-butanol:100 mM MOPS-NaOH pH 6.0 53.4:43.4:3.2 v/v/v microemulsion, 40 °C, 8 h, error = SE
Excerpt: transesterification rate by HPLC, nonlinear Michaelis-Menten fit on MtFae1a

Molecule	Km [1]	Km [2]
FaeA2 (Thermothelomyces thermophilus)	46.5 (18.1) mM	
B1		81.2 (22.3) mM
